According to publication PMC10388275 (Haematologica, 2023):

Molecular target: rmSiglec1-mFc (mouse, UniProt Q62230 20-1639)
Assay: SPR

Chain of rmSiglec1-mFc (Q62230 20-1639): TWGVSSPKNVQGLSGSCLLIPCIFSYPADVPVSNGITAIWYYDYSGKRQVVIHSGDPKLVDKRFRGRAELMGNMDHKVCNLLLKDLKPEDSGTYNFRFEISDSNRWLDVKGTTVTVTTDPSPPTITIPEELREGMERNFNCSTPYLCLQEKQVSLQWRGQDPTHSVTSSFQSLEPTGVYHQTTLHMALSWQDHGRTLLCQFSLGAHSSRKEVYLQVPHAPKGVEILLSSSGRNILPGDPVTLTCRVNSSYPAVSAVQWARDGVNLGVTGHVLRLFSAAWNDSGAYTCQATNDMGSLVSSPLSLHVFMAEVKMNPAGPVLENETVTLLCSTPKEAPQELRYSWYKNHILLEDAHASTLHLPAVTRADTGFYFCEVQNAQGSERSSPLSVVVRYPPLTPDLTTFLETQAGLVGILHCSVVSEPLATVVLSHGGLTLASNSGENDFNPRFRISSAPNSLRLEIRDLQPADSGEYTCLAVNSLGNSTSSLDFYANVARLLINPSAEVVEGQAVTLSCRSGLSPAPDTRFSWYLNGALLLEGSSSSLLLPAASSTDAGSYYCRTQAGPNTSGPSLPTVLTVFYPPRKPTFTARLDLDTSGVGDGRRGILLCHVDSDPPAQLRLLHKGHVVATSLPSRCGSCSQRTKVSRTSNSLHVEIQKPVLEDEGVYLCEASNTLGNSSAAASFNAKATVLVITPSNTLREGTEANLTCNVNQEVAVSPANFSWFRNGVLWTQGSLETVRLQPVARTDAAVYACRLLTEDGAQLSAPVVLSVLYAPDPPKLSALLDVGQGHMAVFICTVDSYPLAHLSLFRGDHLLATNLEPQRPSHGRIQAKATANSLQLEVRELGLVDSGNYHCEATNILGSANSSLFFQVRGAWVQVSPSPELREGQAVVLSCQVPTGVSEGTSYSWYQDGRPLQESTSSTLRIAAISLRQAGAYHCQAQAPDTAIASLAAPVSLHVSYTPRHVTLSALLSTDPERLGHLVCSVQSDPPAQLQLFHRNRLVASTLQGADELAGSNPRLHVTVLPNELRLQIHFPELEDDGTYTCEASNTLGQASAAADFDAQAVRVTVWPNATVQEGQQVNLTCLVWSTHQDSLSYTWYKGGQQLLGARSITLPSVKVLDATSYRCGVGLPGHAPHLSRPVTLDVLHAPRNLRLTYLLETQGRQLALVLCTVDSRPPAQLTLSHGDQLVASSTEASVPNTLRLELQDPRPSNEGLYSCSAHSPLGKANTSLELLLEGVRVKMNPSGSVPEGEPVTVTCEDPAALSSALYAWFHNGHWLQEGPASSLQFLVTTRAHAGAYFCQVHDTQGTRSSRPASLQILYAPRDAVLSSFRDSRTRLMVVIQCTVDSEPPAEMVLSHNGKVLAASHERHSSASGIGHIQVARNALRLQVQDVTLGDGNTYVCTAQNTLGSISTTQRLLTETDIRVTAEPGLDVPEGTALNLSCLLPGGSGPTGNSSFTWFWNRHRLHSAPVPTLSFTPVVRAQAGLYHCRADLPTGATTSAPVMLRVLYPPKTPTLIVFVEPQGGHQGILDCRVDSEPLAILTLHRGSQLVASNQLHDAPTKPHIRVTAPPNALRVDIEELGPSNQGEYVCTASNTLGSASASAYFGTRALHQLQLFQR

Kd: 107 nM
B1: rmCD43-hFc (Fc fusion, mouse, UniProt P15702 20-248, looked up)
chain: DSLQRTTMLPSTPHITAPSTSEAQNASPSVSVGSGTVDSKETISPWGQTTIPVSLTPLETTELSSLETSAGASMSTPVPEPTASQEVSSKTSALLPEPSNVASDPPVTAANPVTDGPAANPVTDGTAASTSISKGTSAPPTTVTTSSNETSGPSVATTVSSKTSGPPVTTATGSLGPSSEMHGLPATTATSSVESSSVARGTSVSSRKTSTTSTQDPITTRSPSQESSG
